According to the supplement of paper PMC9112550, “Optimization of the antimicrobial peptide Bac7 by deep mutational scanning” (BMC Biology, 2022):

system: Escherichia coli TOP10; experiment: shrunken log2 fold change of peptide-encoding DNA abundance (4.5 h post-induction vs induction); higher = less antimicrobial activity (less host growth inhibition); details: time post-induction: 4.5 h; library: site-saturation at positions 5, 18, 19, 20
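Further: peptides expressed intracellularly from a pBAD plasmid library in pooled LB shake-flask culture, induced with 0.3% L-arabinose, DNA abundance read by NGS, three biological replicates, DESeq2 with apeglm shrinkage.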

Sequence | shrunken log2 fold change
RRIRVRPPRLPRPRPRPFQNPRP | 0.00707
RRIRRRPPRLPRPRPRPGERPRP | 0.0829
RRIRFRPPRLPRPRPRPFPQPRP | -0.173
RRIRRRPPRLPRPRPRPDSNPRP | 0.0666
RRIRYRPPRLPRPRPRPWWSPRP | -0.0117
RRIRVRPPRLPRPRPRPVDAPRP | 0.485
RRIRDRPPRLPRPRPRPEFIPRP | 0.163
RRIRMRPPRLPRPRPRPEDTPRP | 1.94
RRIRTRPPRLPRPRPRPKWHPRP | -0.0752
RRIRWRPPRLPRPRPRPMFHPRP | -0.271
RRIRPRPPRLPRPRPRPHYIPRP | -0.586
RRIRARPPRLPRPRPRPHQNPRP | 0.409
RRIRWRPPRLPRPRPRPILTPRP | 0.00604
RRIRQRPPRLPRPRPRPCNFPRP | 0.0393
RRIRVRPPRLPRPRPRPMNRPRP | -0.182
RRIRLRPPRLPRPRPRPMRKPRP | 0.651
RRIRFRPPRLPRPRPRPQVGPRP | -0.0394
RRIRSRPPRLPRPRPRPNHRPRP | -0.426
RRIRSRPPRLPRPRPRPAECPRP | 0.0306
RRIRDRPPRLPRPRPRPAWNPRP | 0.428
RRIRGRPPRLPRPRPRPNATPRP | 3.1
RRIRSRPPRLPRPRPRPMADPRP | -0.0211
RRIRKRPPRLPRPRPRPNMGPRP | -0.215
RRIRHRPPRLPRPRPRPYLSPRP | -0.221
RRIRWRPPRLPRPRPRPFSAPRP | -0.133

Sequence | shrunken log2 fold change
RRIRNRPPRLPRPRPRPGKWPRP | -0.0427
RRIRLRPPRLPRPRPRPELNPRP | 0.145
RRIRMRPPRLPRPRPRPEEWPRP | 0.00599
RRIRPRPPRLPRPRPRPDDCPRP | -0.0649
RRIRMRPPRLPRPRPRPCAKPRP | 0.207
RRIRNRPPRLPRPRPRPNKAPRP | -0.000622
RRIRERPPRLPRPRPRPIPMPRP | -0.136
RRIRFRPPRLPRPRPRPAEKPRP | -0.0885
RRIRGRPPRLPRPRPRPWCWPRP | 0.682
RRIRSRPPRLPRPRPRPLQIPRP | 0.0322
RRIRDRPPRLPRPRPRPSWCPRP | -0.0805
RRIRRRPPRLPRPRPRPTTEPRP | 0.0681
RRIRTRPPRLPRPRPRPNKTPRP | -0.0171
RRIRGRPPRLPRPRPRPTWSPRP | 0.977
RRIRERPPRLPRPRPRPRDIPRP | -0.0401
RRIRGRPPRLPRPRPRPHNCPRP | -0.0265
RRIRVRPPRLPRPRPRPQIYPRP | -0.251
RRIRRRPPRLPRPRPRPQAVPRP | 0.331
RRIRQRPPRLPRPRPRPPCFPRP | 0.222
RRIRLRPPRLPRPRPRPTHSPRP | 0.122
RRIRHRPPRLPRPRPRPDFAPRP | -1.07
RRIRLRPPRLPRPRPRPRKMPRP | 0.281
RRIRNRPPRLPRPRPRPPRQPRP | 0.449
RRIRDRPPRLPRPRPRPELPPRP | 0.302
RRIRPRPPRLPRPRPRPIPDPRP | 0.0469

Sequence | shrunken log2 fold change
RRIRPRPPRLPRPRPRPSHAPRP | -0.166
RRIRLRPPRLPRPRPRPTGTPRP | 0.104
RRIRDRPPRLPRPRPRPNGMPRP | -0.0609
RRIRHRPPRLPRPRPRPMLWPRP | 0.0253
RRIRHRPPRLPRPRPRPRFFPRP | 0.152
RRIRVRPPRLPRPRPRPLGDPRP | -0.125
RRIRGRPPRLPRPRPRPYKWPRP | -0.0702
RRIRARPPRLPRPRPRPMGRPRP | 0.275
RRIRYRPPRLPRPRPRPKTRPRP | -0.142
RRIRLRPPRLPRPRPRPCECPRP | 0.202
RRIRWRPPRLPRPRPRPKRPPRP | 0.873
RRIRGRPPRLPRPRPRPTDCPRP | 0.275
RRIRKRPPRLPRPRPRPFVIPRP | -0.363
RRIRVRPPRLPRPRPRPHVEPRP | 0.0127
RRIRYRPPRLPRPRPRPTDPPRP | -0.107
RRIRVRPPRLPRPRPRPWTLPRP | 0.113
RRIRWRPPRLPRPRPRPDNFPRP | -0.0334
RRIRDRPPRLPRPRPRPRENPRP | 0.415
RRIRKRPPRLPRPRPRPNCRPRP | 0.00408
RRIRNRPPRLPRPRPRPILVPRP | -0.0115
RRIRSRPPRLPRPRPRPKGDPRP | -0.011
RRIRRRPPRLPRPRPRPKIFPRP | 0.0586
RRIRHRPPRLPRPRPRPHFLPRP | -0.0519
RRIRYRPPRLPRPRPRPFHNPRP | -0.451
RRIRSRPPRLPRPRPRPKEMPRP | 0.187

Sequence | shrunken log2 fold change
RRIRCRPPRLPRPRPRPVGYPRP | 0.0595
RRIRKRPPRLPRPRPRPNGCPRP | -0.0163
RRIRWRPPRLPRPRPRPMWHPRP | -0.139
RRIRNRPPRLPRPRPRPPTKPRP | 0.46
RRIRMRPPRLPRPRPRPAYQPRP | -0.233
RRIRWRPPRLPRPRPRPWTSPRP | -0.0584
RRIRIRPPRLPRPRPRPEFVPRP | -0.0754
RRIRQRPPRLPRPRPRPDLGPRP | 0.0039
RRIRIRPPRLPRPRPRPCKKPRP | -0.0718
RRIRNRPPRLPRPRPRPAGKPRP | -0.0122
RRIRHRPPRLPRPRPRPSWFPRP | -0.408
RRIRYRPPRLPRPRPRPFQMPRP | -0.143
RRIRHRPPRLPRPRPRPMPPPRP | 0.00237
RRIRARPPRLPRPRPRPNRIPRP | -0.215
RRIRPRPPRLPRPRPRPKNNPRP | -0.475
RRIRCRPPRLPRPRPRPPSVPRP | 0.292
RRIRFRPPRLPRPRPRPLQKPRP | -0.235
RRIRHRPPRLPRPRPRPVACPRP | 0.00664
RRIRTRPPRLPRPRPRPLMMPRP | -0.314
RRIRFRPPRLPRPRPRPMWVPRP | -0.00617
RRIRRRPPRLPRPRPRPCAHPRP | 0.067
RRIRHRPPRLPRPRPRPECFPRP | -0.0176
RRIRFRPPRLPRPRPRPRGYPRP | -0.25
RRIRPRPPRLPRPRPRPYHWPRP | -0.449
RRIRGRPPRLPRPRPRPRFHPRP | 0.0803

Sequence | shrunken log2 fold change
RRIRGRPPRLPRPRPRPYQDPRP | 0.0178
RRIRPRPPRLPRPRPRPNCYPRP | -0.344
RRIRIRPPRLPRPRPRPRRRPRP | 0.169
RRIRGRPPRLPRPRPRPSFFPRP | 0.202
RRIRVRPPRLPRPRPRPKKAPRP | 0.157
RRIRYRPPRLPRPRPRPFRMPRP | -0.0929
RRIRARPPRLPRPRPRPCPWPRP | -0.0222
RRIRVRPPRLPRPRPRPELKPRP | -0.341
RRIRSRPPRLPRPRPRPPEAPRP | 0.854
RRIRKRPPRLPRPRPRPWSDPRP | -0.0989
RRIRYRPPRLPRPRPRPLWDPRP | -0.717
RRIRLRPPRLPRPRPRPLRGPRP | 1.11
RRIRERPPRLPRPRPRPVPGPRP | 0.186
RRIRFRPPRLPRPRPRPCLPPRP | -0.783
RRIRQRPPRLPRPRPRPKMDPRP | -0.111
RRIRLRPPRLPRPRPRPMKRPRP | -0.0358
RRIRRRPPRLPRPRPRPMLNPRP | -0.157
RRIRRRPPRLPRPRPRPPSEPRP | 0.974
RRIRDRPPRLPRPRPRPMMRPRP | 0.763
RRIRQRPPRLPRPRPRPHVKPRP | -0.274
RRIRKRPPRLPRPRPRPHAGPRP | 0.143
RRIRTRPPRLPRPRPRPEPVPRP | 0.272
RRIRWRPPRLPRPRPRPKHAPRP | 0.222
RRIRYRPPRLPRPRPRPSSCPRP | -0.101
RRIRCRPPRLPRPRPRPRYEPRP | -0.0468

Sequence | shrunken log2 fold change
RRIRNRPPRLPRPRPRPEWIPRP | -0.16
RRIRVRPPRLPRPRPRPKAMPRP | 0.0194
RRIRVRPPRLPRPRPRPETGPRP | 0.206
RRIRPRPPRLPRPRPRPCNLPRP | -0.593
RRIRNRPPRLPRPRPRPLNSPRP | -0.162
RRIRKRPPRLPRPRPRPMFFPRP | -0.14
RRIRHRPPRLPRPRPRPLVNPRP | -0.117
RRIRMRPPRLPRPRPRPPGVPRP | 0.919
RRIRERPPRLPRPRPRPFYCPRP | 0.0826
RRIRWRPPRLPRPRPRPDVDPRP | -0.0413
RRIRKRPPRLPRPRPRPMYIPRP | -0.0457
RRIRFRPPRLPRPRPRPDRNPRP | -0.182
RRIRIRPPRLPRPRPRPEQSPRP | 0.168
RRIRYRPPRLPRPRPRPQKQPRP | 0.00415
RRIRKRPPRLPRPRPRPQRKPRP | 0.71
RRIRTRPPRLPRPRPRPMDSPRP | -0.0716
RRIRWRPPRLPRPRPRPLMGPRP | -0.276
RRIRQRPPRLPRPRPRPYAHPRP | -0.249
RRIRSRPPRLPRPRPRPRHDPRP | 0.23
RRIRVRPPRLPRPRPRPKRMPRP | 0.117
RRIRARPPRLPRPRPRPGKWPRP | 0.19
RRIRTRPPRLPRPRPRPVVAPRP | 0.418
RRIRVRPPRLPRPRPRPINPPRP | -0.327
RRIRMRPPRLPRPRPRPDWMPRP | -0.0455
RRIRSRPPRLPRPRPRPRCQPRP | 0.0737
